From patent US20220372155A1 (LYVGEN BIOPHARMA, published 2022)

Tests used:
[1] = biological target: T1, human CD40 expressed on CHO cells (human, UniProt P25942 21-277); test: FACS, CHO cells
T1 construct: whole, on cells; also used for the reporter cells over-expressing human CD40; also called cellular CD40; CHO-CD40 cells

[2] = biological target: T2, human PD-1 expressed on CHO cells (human, UniProt Q15116 25-288); test: FACS, CHO cells
T2 construct: whole, on cells; also used for human PD-1 on Jurkat reporter cells; also called Jurkat/NFkB-Luci/PD-1 cells
T2 sequence (Q15116 25-288): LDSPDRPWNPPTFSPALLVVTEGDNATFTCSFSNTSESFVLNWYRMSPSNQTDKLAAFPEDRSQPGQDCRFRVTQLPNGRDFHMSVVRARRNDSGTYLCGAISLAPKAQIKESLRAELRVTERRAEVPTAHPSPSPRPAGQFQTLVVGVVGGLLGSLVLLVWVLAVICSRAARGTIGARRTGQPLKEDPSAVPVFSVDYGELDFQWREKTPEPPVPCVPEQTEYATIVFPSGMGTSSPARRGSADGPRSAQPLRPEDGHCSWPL

T1 sequence (P25942 21-277): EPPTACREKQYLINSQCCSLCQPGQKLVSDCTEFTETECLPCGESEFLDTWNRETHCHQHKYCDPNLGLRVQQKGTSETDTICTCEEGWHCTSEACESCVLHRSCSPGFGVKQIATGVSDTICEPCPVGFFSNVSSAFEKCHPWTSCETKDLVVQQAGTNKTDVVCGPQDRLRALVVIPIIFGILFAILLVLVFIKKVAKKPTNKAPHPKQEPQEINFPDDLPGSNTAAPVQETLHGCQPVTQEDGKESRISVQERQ

binding result [1] | binding result [2] | Binder
binds | binds | Ly817 (bispecific antibody, human IgG1, kappa, Ly516 HC (IgG1 mutated Fc) + Ly516 LC-TM740 scFv VL-VH) heavy: QVTLKESGPALVKPTQTLTLTCTFSGFSLSTSGTCVSWIRQPPGKALEWLATICWEDSKGYNPSLKSRLTISKDTSKNQAVLTMTNMDPVDTATYYCARREDSGYFWFPYWGQGTLVTVSSASTKGPSVFPLAPSSKSTSGGTAALGCLVKDYFPEPVTVSWNSGALTSGVHTFPAVLQSSGLYSLSSVVTVPSSSLGTQTYICNVNHKPSNTKVDKKVEPKSCDKTHTCPPCPAPELLGPSVFLFPPKPKDTLMISRTPEVTCVVVDVSHEDPEVKFNWYVDGVEVHNAKTKPREEQYNSTYRVVSVLTVLHQDWLNGKEYKCKVSNKALPAPIEKTISKAKGQPREPQVYTLPPSREEMTKNQVSLTCLVKGFYPSDIAVEWESNGQPENNYKTTPPVLDSDGSFFLYSKLTVDKSRWQQGNVFSCSVMHEALHNHYTQKSLSLSPGK light: NIQMTQSPSSLSASVGDRVTITCKAGQNVNNYLAWYQQKPGKAPKVLIFNANSLQTGVPSRFSGSGSGTDFTLTISSLQPEDFATYYCQQYNSWPTFGGGTKVEIKRTVAAPSVFIFPPSDEQLKSGTASVVCLLNNFYPREAKVQWKVDNALQSGNSQESVTEQDSKDSTYSLSSTLTLSKADYEKHKVYACEVTHQGLSSPVTKSFNRGECGGGGSGGGGSGGGGSGGGGSDIQMTQSPSSLSASVGDRVTITCKASQNIYIYLNWYQQKPGKAPKLLIYNTNNLQTGVPSRFSGSGSGTDFTLTISSLQPEDFATYYCLQHSSRRTFGGGTKVEIKGGGGSGGGGSGGGGSGGGGSQVQLVESGGGLVQPGGSLKLSCATSGFNFNDYFMNWVRQASGKGLEWVGQIRNKNYNYATYYTESLEGRVTISRDDSKNTAYLQMNSLKTEDTAVYYCTSYYYDGFADYFDYWGQGTTVTVSS
binds | binds | Ly818 (bispecific antibody, human IgG1, kappa, Ly516 HC (IgG1 mutated Fc) + Ly516 LC-TM740 scFv VH-VL) heavy: QVTLKESGPALVKPTQTLTLTCTFSGFSLSTSGTCVSWIRQPPGKALEWLATICWEDSKGYNPSLKSRLTISKDTSKNQAVLTMTNMDPVDTATYYCARREDSGYFWFPYWGQGTLVTVSSASTKGPSVFPLAPSSKSTSGGTAALGCLVKDYFPEPVTVSWNSGALTSGVHTFPAVLQSSGLYSLSSVVTVPSSSLGTQTYICNVNHKPSNTKVDKKVEPKSCDKTHTCPPCPAPELLGPSVFLFPPKPKDTLMISRTPEVTCVVVDVSHEDPEVKFNWYVDGVEVHNAKTKPREEQYNSTYRVVSVLTVLHQDWLNGKEYKCKVSNKALPAPIEKTISKAKGQPREPQVYTLPPSREEMTKNQVSLTCLVKGFYPSDIAVEWESNGQPENNYKTTPPVLDSDGSFFLYSKLTVDKSRWQQGNVFSCSVMHEALHNHYTQKSLSLSPGK light: NIQMTQSPSSLSASVGDRVTITCKAGQNVNNYLAWYQQKPGKAPKVLIFNANSLQTGVPSRFSGSGSGTDFTLTISSLQPEDFATYYCQQYNSWPTFGGGTKVEIKRTVAAPSVFIFPPSDEQLKSGTASVVCLLNNFYPREAKVQWKVDNALQSGNSQESVTEQDSKDSTYSLSSTLTLSKADYEKHKVYACEVTHQGLSSPVTKSFNRGECGGGGSGGGGSGGGGSGGGGSQVQLVESGGGLVQPGGSLKLSCATSGFNFNDYFMNWVRQASGKGLEWVGQIRNKNYNYATYYTESLEGRVTISRDDSKNTAYLQMNSLKTEDTAVYYCTSYYYDGFADYFDYWGQGTTVTVSSGGGGSGGGGSGGGGSGGGGSDIQMTQSPSSLSASVGDRVTITCKASQNIYIYLNWYQQKPGKAPKLLIYNTNNLQTGVPSRFSGSGSGTDFTLTISSLQPEDFATYYCLQHSSRRTFGGGTKVEIK
